According to patent US20190330323A1 (UCB, published 2019):
Residue numbers refer to the chain shown, from its start.

T1: mouse Gremlin (mouse, UniProt O70326 25-184)
T1 sequence (looked up): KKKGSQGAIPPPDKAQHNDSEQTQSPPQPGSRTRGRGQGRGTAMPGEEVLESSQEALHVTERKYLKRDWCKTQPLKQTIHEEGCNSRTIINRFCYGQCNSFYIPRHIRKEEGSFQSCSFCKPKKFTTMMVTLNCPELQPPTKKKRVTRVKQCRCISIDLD

T2: BMP4/7 heterodimer (human, UniProt P12644 293-408; P18075 293-431)
T2 sequence (looked up) 1: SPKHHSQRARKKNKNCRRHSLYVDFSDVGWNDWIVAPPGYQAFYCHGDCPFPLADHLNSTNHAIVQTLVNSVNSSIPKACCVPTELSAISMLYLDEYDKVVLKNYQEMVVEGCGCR
T2 sequence (looked up) 2: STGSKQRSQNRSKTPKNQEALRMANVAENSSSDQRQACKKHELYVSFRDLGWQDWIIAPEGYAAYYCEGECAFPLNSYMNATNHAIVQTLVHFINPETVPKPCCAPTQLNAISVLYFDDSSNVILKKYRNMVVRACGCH

B1: Ab7326 (as tested in the screening assays of Example 5) (antibody, V domains shown)
VH: QVQLVESGAEVKKPGATVKISCKVSGYTFTDYYMHWVQQAPGKGLEWMGLVDPEDGETIYAEKFQGRVTITADTSTDTAYMELSSLRSEDTAVYYCATDARGSGSYYPNHFDYWGQGTLVTVSS
VL: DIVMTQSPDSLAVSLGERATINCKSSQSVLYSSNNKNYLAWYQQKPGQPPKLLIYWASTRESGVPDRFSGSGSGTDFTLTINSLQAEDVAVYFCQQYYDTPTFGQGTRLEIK
B2: truncated human Gremlin-1 (E. coli, refolded, N-terminal 6His-TEV tag) (ligand)
chain: MGSSHHHHHHSSGENLYFQGSAMPGEEVLESSQEALHVTERKYLKRDWCKTQPLKQTIHEEGCNSRTIINRFCYGQCNSFYIPRHIRKEEGSFQSCSFCKPKKFTTMMVTLNCPELQPPTKKKRVTRVKQCRCISIDLD
B3: human Gremlin-1 (recombinant, full length) (ligand)
chain: T1 sequence (looked up) with P27Q, T33N

Columns and labels:
Test in all cases: cell-based or functional assay
mouse Gremlin = target: T1, mouse Gremlin
[1] = target: B3
BMP4/7 heterodimer [2] = target: T2, BMP4/7 heterodimer
BMP4/7 heterodimer [3] = target: T2, BMP4/7 heterodimer; remark: listed apart in the source

| IC50, restoration of BMP signalling, Hek-Id1 reporter gene assay (mouse Gremlin) [nM] | IC50, restoration of BMP signalling, Hek-Id1 reporter gene assay [1] [nM] | IC50 (read off the curve) [B] (BMP4/7 heterodimer [2]) [nM] | IC50, Geometric mean (nM), Hek-Id1 reporter gene assay, N = 2 (BMP4/7 heterodimer [3]) [nM] | Binder |
| --- | --- | --- | --- | --- |
| 0.2 | 1.3 |  |  | B1 |
|  |  | ~3 | 1.7 | B2 |
|  |  |  | 1.6 | B3 |
